The record followed here is patent US7101851 (dated 2006).

This test deals with T1, alpha subunit of the human FcεRI receptor (IgE high affinity receptor), expressed on Chinese hamster ovary … (human, UniProt P12319 26-257).
T1 construct: whole, on cells; also called CHO FcεRI+ cells; FcεRIα
T1 sequence (looked up): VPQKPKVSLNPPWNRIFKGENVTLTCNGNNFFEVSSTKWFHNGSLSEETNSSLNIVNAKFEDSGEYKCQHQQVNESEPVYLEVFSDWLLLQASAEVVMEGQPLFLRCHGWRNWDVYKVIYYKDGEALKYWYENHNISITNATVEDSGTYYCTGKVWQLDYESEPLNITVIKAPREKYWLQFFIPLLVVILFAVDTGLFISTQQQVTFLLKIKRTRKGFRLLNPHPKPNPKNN
Nature of the test: inhibition of 125I-IgE binding to CHO cells expressing human FcεRI alpha; competitor IgE. The method, then: To determine the ability of peptides to inhibit IgE binding to FcεRI, a cell-based binding assay was used with radiolabeled IgE. Chinese hamster ovary cells expressing the alpha subunit of the human FcεRI receptor were cultured overnight in Falcon 96 well microtiter plates at a concentration of 5 ×10^4 cells per well. The following day the cells were rinsed three times with PBS and then once with F12/DMEM. Peptide stocks were reconstituted in 100 mM Hepes buffered water, pH 7.2, at a concentration of 5 mg/mL. Working concentrations of the peptide were diluted in assay buffer (see below). 75 uL of a desired concentration of peptide was added to the top row of a separate 96 well microtiter plate and serially diluted 1:3 in 50 uL of the assay buffer (F12/DMEM, 1% BSA, 0.05% NaN_3 and 0.025 mM Hepes pH 7.2). Starting concentrations ranged from 50–500 uM. Next, 50 uL of the diluted peptide was transferred to the 96 microtiter well plate containing a monolayer of CHO FcεRI+ cells. […] Cells were […]

Bridges are numbered along the chain shown (N, C = ends). Where no end group is shown, it is not given here. [ ]: non-standard residue; d: D form. Pip = O=C(O)[C@@H]1CCCCN1; dPip = O=C(O)[C@H]1CCCCN1; hCys = N[C@@H](CCS)C(=O)O; NMeA = CN[C@@H](C)C(=O)O

B1: IGE161-2 (peptide)
peptide: VQCPHFCYFGGAELC[Pip]DVCYV-NH2
modifications: disulfide 7-15, 3-19
One may read the IC50 as the concentration needed to halve the response being measured. B1: the 50% inhibitory concentration (IC50) is 680 nM.

B2: IGE158 (peptide)
peptide: VQCPHFCYFGGAELC[NMeA]DVCYV-NH2
modifications: disulfide 7-15, 3-19; N-terminus assumed
SMILES: CC(C)C[C@@H]1NC(=O)[C@H](CCC(=O)O)NC(=O)[C@H](C)NC(=O)CNC(=O)CNC(=O)[C@H](Cc2ccccc2)NC(=O)[C@H](Cc2ccc(O)cc2)NC(=O)[C@@H]2CSSC[C@H](NC1=O)C(=O)N(C)[C@@H](C)C(=O)N[C@@H](CC(=O)O)C(=O)N[C@@H](C(C)C)C(=O)N[C@H](C(=O)N[C@@H](Cc1ccc(O)cc1)C(=O)N[C@H](C(N)=O)C(C)C)CSSC[C@H](NC(=O)[C@H](CCC(N)=O)NC(=O)[C@@H](N)C(C)C)C(=O)N1CCC[C@H]1C(=O)N[C@@H](Cc1c[nH]cn1)C(=O)N[C@@H](Cc1ccccc1)C(=O)N2
As for B2, the IC50 amounted to 1080 nM.

B3: IGE166 (peptide)
peptide: VQCPHF[hCys]YFGGAELCPDVCYV-NH2
modifications: disulfide 7-15, 3-19
Turning to B3, the IC50 is 65000 nM.

B4: IGE162-2 (peptide)
peptide: VQC[Pip]HFCYFGGAELCPDVCYV-NH2
modifications: disulfide 7-15, 3-19
In turn, B4 returned a concentration for half-maximal inhibition (IC50) of 430 nM.

B5: IGE155 (peptide)
peptide: CPHFCYELDYELCPDVCY-NH2
modifications: not fully specified (bridges); cysteine pairing not given here
In the case of B5, the half-inhibitory concentration (IC50) worked out at 69 nM.

B6: IGE182 (peptide)
peptide: VQCPHFCYELFSRLCPDVCYV-NH2
modifications: disulfide (positions not given here); also: two disulfides, pairing not settled
Take B6: the IC50 is 80 nM.

B7: IGE165 (peptide)
peptide: VQCPHFCYFGGAELCPDV[hCys]YV-NH2
modifications: disulfide (positions not given here)
B7: the IC50 was determined as 1170 nM.

B8: IGE184 (peptide)
peptide: VQCPHFCYDYELCPDVCYV-NH2
modifications: disulfide 7-13, 3-17; N-terminus assumed
SMILES: CC(C)C[C@@H]1NC(=O)[C@H](CCC(=O)O)NC(=O)[C@H](Cc2ccc(O)cc2)NC(=O)[C@H](CC(=O)O)NC(=O)[C@H](Cc2ccc(O)cc2)NC(=O)[C@@H]2CSSC[C@H](NC1=O)C(=O)N1CCC[C@H]1C(=O)N[C@@H](CC(=O)O)C(=O)N[C@@H](C(C)C)C(=O)N[C@H](C(=O)N[C@@H](Cc1ccc(O)cc1)C(=O)N[C@H](C(N)=O)C(C)C)CSSC[C@H](NC(=O)[C@H](CCC(N)=O)NC(=O)[C@@H](N)C(C)C)C(=O)N1CCC[C@H]1C(=O)N[C@@H](Cc1c[nH]cn1)C(=O)N[C@@H](Cc1ccccc1)C(=O)N2
In turn, B8 had an IC50 of 110 nM.

B9: IGE162-1 (peptide)
peptide: VQC[dPip]HFCYFGGAELCPDVCYV-NH2
modifications: disulfide 7-15, 3-19
The molecule B9 yielded a half-maximal inhibitory concentration (IC50) of 4090 nM.

B10: IGE170 (peptide)
peptide: CPHFCYFGAELCPDVCY-NH2
modifications: not fully specified (bridges); cysteine pairing not given here
For the molecule B10, the IC50 was determined as 200 nM.

B11: IGE156 (peptide)
peptide: VQCPHFCYELDYELCPDVCYVGR
modifications: not fully specified (bridges); cysteine pairing not given here
notes: produced as Z-domain fusion in E. coli and released with trypsin
B11 displayed an IC50 of 30 nM.

B12: IGE157 (peptide)
peptide: QCPHFCYELDYELCPDVCY-NH2
modifications: not fully specified (bridges); cysteine pairing not given here
The molecule B12 returned an IC50 of 107 nM.

B13: IGE161-1 (peptide)
peptide: VQCPHFCYFGGAELC[dPip]DVCYV-NH2
modifications: disulfide 7-15, 3-19
As to B13, the IC50 was found to be 41000 nM.

B14: IGE167 (peptide)
peptide: VQCPHFCYFGAELCPDVCYV-NH2
modifications: disulfide 7-14, 3-18; N-terminus assumed
SMILES: CC(C)C[C@@H]1NC(=O)[C@H](CCC(=O)O)NC(=O)[C@H](C)NC(=O)CNC(=O)[C@H](Cc2ccccc2)NC(=O)[C@H](Cc2ccc(O)cc2)NC(=O)[C@@H]2CSSC[C@H](NC1=O)C(=O)N1CCC[C@H]1C(=O)N[C@@H](CC(=O)O)C(=O)N[C@@H](C(C)C)C(=O)N[C@H](C(=O)N[C@@H](Cc1ccc(O)cc1)C(=O)N[C@H](C(N)=O)C(C)C)CSSC[C@H](NC(=O)[C@H](CCC(N)=O)NC(=O)[C@@H](N)C(C)C)C(=O)N1CCC[C@H]1C(=O)N[C@@H](Cc1c[nH]cn1)C(=O)N[C@@H](Cc1ccccc1)C(=O)N2
B14 registered an IC50 of 120 nM.

B15: IGE171 (peptide)
peptide: Ac-CPHFCYFGAELCPDVCY-NH2
modifications: not fully specified (bridges); cysteine pairing not given here
As for B15, the IC50 was found to be 290 nM.

B16: IGE183 (peptide)
peptide: VQCPHFCYDASRLCPDVCYV-NH2
modifications: disulfide (positions not given here); not fully specified (bridges); printed as VQCPHFCYDASRLCPDVCYV-nh2
As to B16, the half-inhibitory concentration (IC50) was found to be 30 nM.

B17: IGE197 (peptide)
peptide: VQCPDFCYDASRLCPDVCYV-NH2
modifications: disulfide 7-14, 3-18; N-terminus assumed
SMILES: CC(C)C[C@@H]1NC(=O)[C@H](CCCNC(=N)N)NC(=O)[C@H](CO)NC(=O)[C@H](C)NC(=O)[C@H](CC(=O)O)NC(=O)[C@H](Cc2ccc(O)cc2)NC(=O)[C@@H]2CSSC[C@H](NC1=O)C(=O)N1CCC[C@H]1C(=O)N[C@@H](CC(=O)O)C(=O)N[C@@H](C(C)C)C(=O)N[C@H](C(=O)N[C@@H](Cc1ccc(O)cc1)C(=O)N[C@H](C(N)=O)C(C)C)CSSC[C@H](NC(=O)[C@H](CCC(N)=O)NC(=O)[C@@H](N)C(C)C)C(=O)N1CCC[C@H]1C(=O)N[C@@H](CC(=O)O)C(=O)N[C@@H](Cc1ccccc1)C(=O)N2
As for B17, the half-inhibitory concentration (IC50) turned out to be 120 nM.

B18: IGE196 (peptide)
peptide: VQCPHFCYDASELCPDVCYV-NH2
modifications: disulfide (positions not given here); not fully specified (bridges); printed as VQCPHFCYDASELCPDVCYV-nh2
As to B18, the concentration for half-maximal inhibition (IC50) turned out to be 90 nM.

B19: IGE164 (peptide)
peptide: VQCPHFCYFGGAEL[hCys]PDVCYV-NH2
modifications: disulfide (positions not given here)
As to B19, the half-maximal inhibitory concentration (IC50) is 40700 nM.

B20: IGE179 (peptide)
peptide: Ac-VQCPHFCYELDYELCPDVCYV-NH2
modifications: not fully specified (bridges); cysteine pairing not given here
The molecule B20 gave an IC50 of 220 nM.

B21: IGE159 (peptide)
peptide: VQC[NMeA]HFCYFGGAELCPDVCYV-NH2
modifications: disulfide 7-15, 3-19; N-terminus assumed
SMILES: CC(C)C[C@@H]1NC(=O)[C@H](CCC(=O)O)NC(=O)[C@H](C)NC(=O)CNC(=O)CNC(=O)[C@H](Cc2ccccc2)NC(=O)[C@H](Cc2ccc(O)cc2)NC(=O)[C@@H]2CSSC[C@H](NC1=O)C(=O)N1CCC[C@H]1C(=O)N[C@@H](CC(=O)O)C(=O)N[C@@H](C(C)C)C(=O)N[C@H](C(=O)N[C@@H](Cc1ccc(O)cc1)C(=O)N[C@H](C(N)=O)C(C)C)CSSC[C@H](NC(=O)[C@H](CCC(N)=O)NC(=O)[C@@H](N)C(C)C)C(=O)N(C)[C@@H](C)C(=O)N[C@@H](Cc1c[nH]cn1)C(=O)N[C@@H](Cc1ccccc1)C(=O)N2
The molecule B21 yielded an IC50 of 380 nM.

B22: IGE168 (peptide)
peptide: Ac-VQCPHFCYFGAELCPDVCYV-NH2
modifications: disulfide 7-14, 3-18
SMILES: CC(=O)N[C@H](C(=O)N[C@@H](CCC(N)=O)C(=O)N[C@H]1CSSC[C@@H](C(=O)N[C@@H](Cc2ccc(O)cc2)C(=O)N[C@H](C(N)=O)C(C)C)NC(=O)[C@H](C(C)C)NC(=O)[C@H](CC(=O)O)NC(=O)[C@@H]2CCCN2C(=O)[C@@H]2CSSC[C@H](NC(=O)[C@H](Cc3ccccc3)NC(=O)[C@H](Cc3c[nH]cn3)NC(=O)[C@@H]3CCCN3C1=O)C(=O)N[C@@H](Cc1ccc(O)cc1)C(=O)N[C@@H](Cc1ccccc1)C(=O)NCC(=O)N[C@@H](C)C(=O)N[C@@H](CCC(=O)O)C(=O)N[C@@H](CC(C)C)C(=O)N2)C(C)C
For B22, the concentration for half-maximal inhibition (IC50) was determined as 260 nM.
